Source: patent EP3464323B1

Molecular target: CY5 fluorescently labeled CAS9 protein (S. pyogenes) (UniProt Q99ZW2)
Test: fluorescence titration; 5 nM CY5-CAS9 titrated with peptide, quadratic fit

CADY (peptide) showed a Kd of over 100 nM.
